For ten molecules, 结合率, OD值 over negative control (fold) and Kd results are on record in patent publication CN110981959A (SHENZHEN PREGENE BIOPHARMACEUTICAL CO LTD, dated 2020).

In experiment [1] the target is CD47 on HL-60 cells (细胞膜表面表达的CD47抗原) (UniProt Q08722). As to the kind of experiment: flow cytometry, 20 μg/ml nanobody on HL-60 cells, anti-His staining. On the technique in general: In flow cytometry, cells or beads pass a laser one at a time.
For experiment [2], the target named is CD47抗原 (北京义翘神州, 货号12283-H08H) (UniProt Q08722). Kind of experiment: ELISA of induced culture supernatants on CD47 antigen (clone screening). Background: In an ELISA, binding on a coated surface is turned into a signal by an enzyme label.
In another experiment the target is Human CD47/Biotinylated (human, UniProt Q08722 19-139, limits assumed, biotinylated (site not stated)). As to the kind of experiment: BLI-type kinetics, biotinylated human CD47 captured on SA probes, antibody at 73.5-588.2 nM.
Sequence of Human CD47/Biotinylated (Q08722 19-139 limits assumed): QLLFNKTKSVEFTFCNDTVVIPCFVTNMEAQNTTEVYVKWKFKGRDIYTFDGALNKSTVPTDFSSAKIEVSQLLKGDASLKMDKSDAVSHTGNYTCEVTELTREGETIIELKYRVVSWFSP

A value given as a limit tells only on which side of the number the result lay.

B1: CD47单域抗体 SEQ ID NO: 3 (VHH)
VHH: HVQLEESGGGLVQPGGSLRLSCKASGLTFASYSMRWYRQAPGQERELVARLSSSGVPIEYVDSVKGRFTASRDDAKSTLYLQMNSLKPEDTAMYYCWIANYWGQGTQVTVSS
notes: His-tagged sdAb from pSJF2 in E. coli (Ni purification, anti-His detection); also called CD47纳米抗体
For B1, the 结合率 in experiment [1] was > 99%. In experiment [2], the OD值 over negative control (fold) is > 5 fold. Moreover, the Kd in the experiment with Human CD47/Biotinylated was < 1 nM.

B2: CD47单域抗体 SEQ ID NO: 6 (VHH)
VHH: QVKLEESGGGLVQPGGSLRLSCAASGLTFSSYSMRWYRQAPGQERELVARLTSSGEPIEYADSVKGRFTASRDNAKSTVYLQMNSLKPEDTAMYYCWIANYWGQGTQVTVSS
notes: as for B1
As for B2, in experiment [1], the 结合率 was > 99%. In experiment [2], the OD值 over negative control (fold) is > 5 fold. Also, the Kd with Human CD47/Biotinylated is < 1 nM.

B3: CD47单域抗体 SEQ ID NO: 10 (VHH)
VHH: GVKLVESGGGLVQPGGSLTLSCVASGFDFNSAHMRWYRQGPGKEREMVASISTTGGVTIYEDSVKGRFTISRDNADNTAYLRMNSLKPEDTAVYYCRAYGFGIDYWGQGTQVTVSS
notes: as for B1
As to B3, in experiment [1], the 结合率 was > 99%. The OD值 over negative control (fold) in experiment [2] was > 5 fold. Also, in the experiment with Human CD47/Biotinylated, the Kd is < 1 nM.

B4: CD47单域抗体 SEQ ID NO: 2 (VHH)
VHH: QVKLEESGGGLVQPGESLRLSCVASGFAFSSALMRWYRQAPGKERELVASITTAGGITGYADSVKGRFTISRDNAENTLYLQMNSLKPEDTAVYYCRAYGFQLDNWGQGTQVTVSS
notes: as for B1
For B4, in experiment [1], the 结合率 is > 99%. In addition, in experiment [2], the OD值 over negative control (fold) is > 5 fold. In addition, in the experiment with Human CD47/Biotinylated, the Kd is < 1 nM.

B5: CD47单域抗体 SEQ ID NO: 5 (VHH)
VHH: GVQLVESGGGLVQPGESLRLSCVASGFAFSSALMRWYRQAPGKERELVASVTTTGGITGYADSVKGRFTISRDNAENTLYLRMNSLKPEDTAVYYCRAYGFGLDSWGQGTQVTVSS
notes: as for B1
In the case of B5, in experiment [1], the 结合率 was > 99%. For the same molecule, the OD值 over negative control (fold) in experiment [2] was > 5 fold. For the same molecule, the Kd with Human CD47/Biotinylated was < 1 nM.

B6: CD47单域抗体 SEQ ID NO: 9 (VHH)
VHH: AVKLVESGGGLVQPGGSLRLSCAASGFTVSNNNLRWYRQAPGKERELVAMITSAGNTNYADAVKGRSTISRDNAKNTLYLEMYRLKPEDTAVYYCWGAAHWGRGTQVTVSS
notes: as for B1
Turning to B6, in experiment [1], the 结合率 is > 99%. Besides, the OD值 over negative control (fold) in experiment [2] is > 5 fold. For the same molecule, in the experiment with Human CD47/Biotinylated, the Kd was < 1 nM.

B7: CD47单域抗体 SEQ ID NO: 7 (VHH)
VHH: QVKLEESGGGLVQPGESLRLSCVASGFTFSDAHMRWYRQAPGKEREMVASISTTGSITIYADSVKGRFTISRDNDEKTVYLRMNSLKPEDTAAYYCRAYGFQIDSWGQGTQVTVSS
notes: as for B1
In the case of B7, the 结合率 in experiment [1] is > 99%. For the same molecule, in experiment [2], the OD值 over negative control (fold) was > 5 fold. Further, the Kd with Human CD47/Biotinylated is < 1 nM.

B8: CD47单域抗体 SEQ ID NO: 1 (VHH)
VHH: DVKLVESGGGLVQPGGSLRLSCAASGFTVSSYSMRWYRQVPGKERELIARITSTGQPIEYGESVKGRFTISRDNAKNTLYLEMNALKPEDTAVYYCWGAGYWGQGTQVTVSS
notes: Expressed from pSJF2 in E. coli, purified on Ni column and detected with anti-His antibody, so it carried a His tag; also called CD47纳米抗体
Consider B8, for which, in experiment [1], the 结合率 is > 99%. Besides, the OD值 over negative control (fold) in experiment [2] is > 5 fold. Moreover, the Kd with Human CD47/Biotinylated was < 1 nM.

B9: CD47单域抗体 SEQ ID NO: 8 (VHH)
VHH: DVQLEESGGGLVQPGGSLRLSCAASGFTVSSYSMRWYRQAPGKERELVARITSTGEPIEYVESVKGRFTISRDNALNTLNLEMNDLKPEDTAVYYCWGAGYWGQGTQVTVSS
notes: as for B1
B9: in experiment [1], the 结合率 is > 99%. The OD值 over negative control (fold) in experiment [2] was > 5 fold. Besides, in the experiment with Human CD47/Biotinylated, the Kd was < 1 nM.

B10: CD47单域抗体 SEQ ID NO: 4 (VHH)
VHH: DVQLVESGGGSVQPGGSLTLSCAASGFTVSNYSMRWYRQAPGKERELIARITSTGVPIEYADSVKGRFTISRDNAKNTLYLEMNGLKPEDTAVYYCWGAAYWGQGTQVTVSS
notes: as for B1
Take B10: the 结合率 in experiment [1] is > 99%. In addition, the OD值 over negative control (fold) in experiment [2] is > 5 fold. In addition, in the experiment with Human CD47/Biotinylated, the Kd is < 1 nM.

One may read the Kd as the free concentration of one partner at which half of the binding sites on the other are occupied at equilibrium, for simple one-to-one binding. Read a low Kd as tighter binding.
